The term EC50 denotes the concentration needed to bring the measured effect to its halfway point. A word on the koff: it is the first-order rate constant of dissociation. In general, kon refers to the second-order rate constant of association.

Experiment [1] addresses T1, tau aggregates in sarkosyl-insoluble brain homogenate preps of 4.5 to 5 month old P301S mice. Briefly: cell-based or functional assay.
The target in experiment [2] is T2, recombinant tau (rTau) (UniProt P10636-8 1-441, limits assumed).
T2 construct: Coated at 'high' (1 ug/mL, simulates aggregated tau) or 'low' (15 ng/mL, simulates tau monomer) concentration; also called rTau Monomer
The experiment is described as follows: direct ELISA, rTau coated at 'High' concentration (1 ug/mL), simulates aggregated tau. The method, then: (§1) 3690) at a concentration corresponding to 0.7 μg/ml of total tau. Plates are incubated overnight at 4° C., then washed three times with 150 μl of PBST (PBS containing 0.05% Tween-20), blocked in 100 μl BB3 (ImmunoChemistry Technology, p/n. 643) at room temperature for at least 1 hr (usually 2 hrs). Following blocking, the blocking buffer is removed from the wells. Exemplified tau monoclonal antibody of Example 1 and a humanized MC-1 antibody construct (having the framework combination: 5-51 heavy-chain, A27 light-chain) are diluted in 0.25% casein buffer to 1000 nM stock, then diluted serially 23 times with two fold dilutions. […] Reaction is stopped by adding 50 μl stop solution (2N H2SO4) and colorimetric signal is measured at 450 nm. […]
(§2) Selectivity of tau monoclonal antibody of Example 1 to tau aggregates versus tau monomer is determined by direct ELISA. […] The plates, coated with high or low concentrations of rTau, respectively, are exposed to exemplified tau monoclonal antibody of Example 1 and binding of exemplified tau monoclonal antibody to the respective concentrations of rTau is measured substantially as described in the ELISA assay above.

The target of experiment [3] is T3, purified tau fibrils from AD brain homogenates (human, UniProt P10636-8 2-441, limits assumed).
T3 construct: Native brain-derived aggregated tau, coated at 0.7 ug/ml total tau; also called Purified AD Tau Fibrils; aggregate tau fibrils from AD brain homogenates
Briefly: direct ELISA on coated purified AD tau fibrils (0.7 ug/ml total tau). How it is done:
(§3) Purified tau fibrils (50 μl) in PBS are coated on wells of 96-well plates (Coastar, p/n. 3690) at a concentration corresponding to 0.7 μg/ml of total tau. Plates are incubated overnight at 4° C., then washed three times with 150 μl of PBST (PBS containing 0.05% Tween-20), blocked in 100 μl BB3 (ImmunoChemistry Technology, p/n. 643) at room temperature for at least 1 hr (usually 2 hrs). Following blocking, the blocking buffer is removed from the wells. Exemplified tau monoclonal antibody of Example 1 and a humanized MC-1 antibody construct (having the framework combination: 5-51 heavy-chain, A27 light-chain) are diluted in 0.25% casein buffer to 1000 nM stock, then diluted serially 23 times with two fold dilutions. 50 μl of stock and serially diluted antibody (either exemplified tau monoclonal of Example 1 or humanized MC-1 antibody construct) are added to separate wells and incubated for 2 hours at room temperature, after which the plate is washed four times with 200 μl PBST per well. 50 μl of anti-human IgG-HRP antibodies (diluted at 1:4000 into 0.25% casein buffer) is added and incubated for 1 hour at room temperature, after which the plate is washed with 200 μl PBST per well 4 times. 50 μl of TMB/H2O2 is added and incubated at room temperature for about 10 minutes. Reaction is stopped by adding 50 μl stop solution (2N H2SO4) and colorimetric signal is measured at 450 nm. […]
(In an ELISA, binding on a coated surface is turned into a signal by an enzyme label.)

The target of experiment [4] is T4, human tau aggregates (human, UniProt P10636 2-758).
T4 construct: analyte in SPR; also called fibril tau; tau fibril aggregate
Briefly: SPR (Biacore 2000), antibody captured on protein A, tau aggregate as analyte, 1:1 fit. The method, then:
(§4) Surface Plasmon Resonance (SPR) assay, measured with a BIACORE® 2000 instrument (primed with HBS-EP+ running buffer (GE Healthcare, 10 mM Hepes pH7.4+150 mM NaCl+3 mM EDTA+0.05% surfactant P20) at 25° C.), is used to measure binding of exemplified tau monoclonal antibody of Example 1 to both human monomeric (e.g., native or non-aggregate) tau and human tau aggregates (both having the amino acid sequence as set forth in SEQ ID NO:13). Binding of humanized MC-1 antibody construct (having the framework combination: 5-51 heavy-chain, A27 light-chain) to human monomeric tau and human tau aggregate is measured in the same manner.
(§5) Except as noted, all reagents and materials are from BIACORE® AB (Upsala, Sweden). A CMS chip containing immobilized protein A (generated using standard NHS-EDC amine coupling) on all four flow cells (FC) is used to employ a capture methodology. […]
(§6) Data of binding to tau aggregate is processed using standard double-referencing and fit to a 1:1 binding model using Biacore 2000 Evaluation software, version 4.1, to determine the association rate (kₒₙ, M⁻¹ s⁻¹ units), dissociation rate (koff, s⁻¹ units), and Rₘₐₓ (RU units). The equilibrium dissociation constant (KD) was calculated from the relationship KD=koff/kₒₙ, and is in molar units. Data of binding to monomeric tau cannot be determined accurately by SPR as described above due to rapid on- and off-rates. […]

The target of experiment [5] is T4, human tau aggregates. Briefly: SPR (Biacore 2000), antibody captured on protein A, tau aggregate as analyte, 1:1 fit; not normalized for avidity. How it is done:
as §4, §5, §6
For orientation: SPR reads the build-up and loss of mass on a sensor chip optically.

The target in experiment [6] is T2, recombinant tau (rTau). Briefly: direct ELISA on rTau coated at 15 ng/ml; antibody stored 4 weeks at pH 4, 40 C; Study 1. How it is done:
(§7) Formulated samples are incubated for four weeks at 4° C. or 40° C. in an accelerated degradation study. Following incubation, binding affinity of the exemplified tau monoclonal antibody of Example 1 to rTau (15 ng/ml) coated on 96-well plates is determined by direct ELISA following the ELISA procedure substantially as described above.

Experiment [7] deals with T3, purified tau fibrils from AD brain …. The experiment is described as follows: direct ELISA on coated purified AD tau fibrils. The method, then:
as §3

Experiment [8] has as its target T2, recombinant tau (rTau). The experiment is described as follows: direct ELISA on rTau coated at 15 ng/ml; antibody stored 4 weeks at pH 6, 40 C; Study 2. The method, then:
as §7

For experiment [9], the target named is T2, recombinant tau (rTau). Briefly: direct ELISA, rTau coated at high (1 ug/mL) against low (15 ng/mL) concentration. How it is done:
as §1, §2

The target of experiment [10] is T2, recombinant tau (rTau). Briefly: direct ELISA on rTau coated at 15 ng/ml; antibody stored 4 weeks at pH 6, 4 C; Study 1. The method, then:
as §7

The target in experiment [11] is T2, recombinant tau (rTau). The experiment is described as follows: direct ELISA, rTau coated at 'Low' concentration (15 ng/mL), simulates tau monomer. How it is done:
as §1, §2

The target of experiment [12] is T2, recombinant tau (rTau). The experiment is described as follows: direct ELISA on rTau coated at 15 ng/ml; antibody stored 4 weeks at pH 4, 40 C; Study 2. How it is done:
as §7

Experiment [13] has as its target T5, human monomeric (native or non-aggregate) tau (human, UniProt P10636 2-758).
T5 construct: Full-length human tau in monomeric state; analyte in SPR; also called Monomeric Tau; monomeric tau
The experiment is described as follows: SPR (Biacore 2000), antibody captured on protein A, tau as analyte, steady state fit. How it is done: as §4, §5, §6

The target in experiment [14] is T1, tau aggregates in sarkosyl-insoluble …. The experiment is described as follows: cell-based or functional assay. This is another data set of the same source.
For experiment [15], the target named is T2, recombinant tau (rTau). The experiment is described as follows: direct ELISA on rTau coated at 15 ng/ml; antibody stored 4 weeks at pH 6, 4 C; Study 2. The method, then: as §7
For experiment [16], the target named is T2, recombinant tau (rTau). Briefly: direct ELISA on rTau coated at 15 ng/ml; antibody stored 4 weeks at pH 6, 40 C; Study 1. How it is done: as §7

T4 sequence (P10636 other isoform, or with tags, fused parts or gaps limits assumed): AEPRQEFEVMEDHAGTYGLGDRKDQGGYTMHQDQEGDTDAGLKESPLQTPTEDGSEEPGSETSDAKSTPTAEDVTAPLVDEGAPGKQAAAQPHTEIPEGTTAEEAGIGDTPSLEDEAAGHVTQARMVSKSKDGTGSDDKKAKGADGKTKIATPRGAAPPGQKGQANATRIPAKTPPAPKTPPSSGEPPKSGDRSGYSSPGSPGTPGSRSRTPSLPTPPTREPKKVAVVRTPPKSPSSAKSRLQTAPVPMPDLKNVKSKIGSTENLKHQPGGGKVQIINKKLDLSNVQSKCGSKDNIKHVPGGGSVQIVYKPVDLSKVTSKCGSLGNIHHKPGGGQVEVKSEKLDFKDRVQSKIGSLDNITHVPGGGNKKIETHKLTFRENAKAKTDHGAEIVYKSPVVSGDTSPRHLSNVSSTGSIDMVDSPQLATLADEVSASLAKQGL
T2 sequence (P10636 other isoform, or with tags, fused parts or gaps limits assumed): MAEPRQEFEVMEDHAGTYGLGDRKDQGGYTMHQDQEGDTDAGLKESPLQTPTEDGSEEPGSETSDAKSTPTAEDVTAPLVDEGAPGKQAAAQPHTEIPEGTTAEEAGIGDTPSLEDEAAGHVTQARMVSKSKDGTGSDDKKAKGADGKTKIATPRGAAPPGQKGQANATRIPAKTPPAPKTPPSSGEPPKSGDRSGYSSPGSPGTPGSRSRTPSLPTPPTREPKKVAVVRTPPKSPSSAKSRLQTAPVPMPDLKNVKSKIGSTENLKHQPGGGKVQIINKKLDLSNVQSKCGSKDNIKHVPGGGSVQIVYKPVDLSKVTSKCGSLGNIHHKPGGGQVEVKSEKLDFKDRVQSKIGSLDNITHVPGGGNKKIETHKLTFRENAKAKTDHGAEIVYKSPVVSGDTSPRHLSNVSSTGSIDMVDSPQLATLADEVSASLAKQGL

B1: exemplified tau monoclonal antibody of Example 1 (antibody, human IgG4 S228P, kappa, F234A L235A, V domains shown)
VH: EVQLVQSGAEVKKPGESLKISCKGSGYTFSNYWIEWVRQMPGKGLEWMGEILPGSDSIKYEKNFKGQVTISADKSISTAYLQWSSLKASDTAMYYCARRGNYVDDWGQGTLVTVSS
VL: EIVLTQSPGTLSLSPGERATLSCRSSQSLVHSNQNTYLHWYQQKPGQAPRLLIYKVDNRFSGIPDRFSGSGSGTDFTLTISRLEPEDFAVYYCSQSTLVPLTFGGGTKVEIKR
notes: Humanized IgG4 (HC framework 5-51), kappa LC (framework A27); expressed in CHO cells; Carries seven CDR changes relative to murine MC-1; also called exemplified engineered tau monoclonal antibody
As for B1, in [1], the “EC50 (representing inhibition of AT8-Positive Tau Aggregate propagation (ng/mL))” value came to 16 ng/mL. Also, the 50% effective concentration (EC50) in the experiment with recombinant tau (rTau) [2] is 0.006 nM; in experiment [3], 0.0068 nM; with recombinant tau (rTau) [6], 0.414 nM; in the experiment with recombinant tau (rTau) [8], 0.667 nM; in the experiment with recombinant tau (rTau) [10] it was 0.926 nM; with recombinant tau (rTau) [11] it was 0.723 nM. Further, the figures for the EC50 with recombinant tau (rTau) [12], with recombinant tau (rTau) [15] and with recombinant tau (rTau) [16] were 0.277 nM, 0.636 nM and 0.754 nM, respectively. In the experiment with human tau aggregates [4], the off-rate constant (koff) is less than 1e-05 s⁻¹. The association rate constant (kon) with human tau aggregates [4] amounted to 45900 M⁻¹ s⁻¹. The Kd with human tau aggregates [5] was less than 0.22 nM; in [13], 235 nM. Besides, the “fold improved affinity (as measured by EC50) over humanized MC-1 antibody construct” value in experiment [7] was found to be 60 fold. The “fold improved affinity (as measured by EC50) to aggregate tau over monomeric tau” value with recombinant tau (rTau) [9] is 120 fold. Moreover, the “fold improvement in the inhibition of induced tau aggregate propagation (against humanized MC-1 antibody construct)” value in [14] is approximately 30 fold.
